US20180251503A1 (Memorial Sloan Kettering, published 2018)

B1: GD2xCD3 bispecific fusion protein (scFv5F11-(G4S)3-scFvhOKT3, Y-BT, without dimerization component) (bispecific antibody)
scFv: QVQLQQSGPELVKPGASVKISCKTSGYKFTEYTMHWVKQSHGKCLEWIGGINPNNGGTNYNQKFKGKATLTVDKSSSTAYMELRSLTSEDSAVYYCARDTTVPYAYWGQGTTVTVSSGGGGSGGGGSGGGGSDIELTQSPAIMSASPGEKVTMTCSASSSISYMHWYQQKPGTSPKRWIYDTSKLASGVPARFSGSGSGTSYSLTISSMEAEDAATYYCHQRSSYPLTFGCGTKLEIKRASTKGPGGGGSGGGGSGGGGSQVQLVQSGGGVVQPGRSLRLSCKASGYTFTRYTMHWVRQAPGKGLEWIGYINPSRGYTNYNQKFKDRFTISRDNSKNTAFLQMDSLRPEDTGVYFCARYYDDHYCLDYWGQGTPVTVSSGGGGSGGGGSGGGGSDIQMTQSPSSLSASVGDRVTITCSASSSVSYMNWYQQTPGKAPKRWIYDTSKLASGVPSRFSGSGSGTDYTFTISSLQPEDIATYYCQQWSSNPFTFGQGTKLQITRHHHHHH
B2: GD2xCD3-HDD bispecific fusion protein (scFv5F11-scFvhOKT3 with HNF-1alpha dimerization component, Y-BT-HDD) (bispecific antibody)
scFv: QVQLQQSGPELVKPGASVKISCKTSGYKFTEYTMHWVKQSHGKCLEWIGGINPNNGGTNYNQKFKGKATLTVDKSSSTAYMELRSLTSEDSAVYYCARDTTVPYAYWGQGTTVTVSSGGGGSGGGGSGGGGSDIELTQSPAIMSASPGEKVTMTCSASSSISYMHWYQQKPGTSPKRWIYDTSKLASGVPARFSGSGSGTSYSLTISSMEAEDAATYYCHQRSSYPLTFGCGTKLEIKRASTKGPGGGGSGGGGSGGGGSQVQLVQSGGGVVQPGRSLRLSCKASGYTFTRYTMHWVRQAPGKGLEWIGYINPSRGYTNYNQKFKDRFTISRDNSKNTAFLQMDSLRPEDTGVYFCARYYDDHYCLDYWGQGTPVTVSSGGGGSGGGGSGGGGSDIQMTQSPSSLSASVGDRVTITCSASSSVSYMNWYQQTPGKAPKRWIYDTSKLASGVPSRFSGSGSGTDYTFTISSLQPEDIATYYCQQWSSNPFTFGQGTKLQITRTPLGDTTHTSGMVSKLSQLQTELLAALLESGLSKEALIQALGEGSGGAPHHHHHH
B3: Humanized OKT3 IgG (parental humanized OKT3 antibody) (antibody, V domains shown)
VH: QVQLVQSGGGVVQPGRSLRLSCKASGYTFTRYTMHWVRQAPGKGLEWIGYINPSRGYTNYNQKFKDRFTISRDNSKNTAFLQMDSLRPEDTGVYFCARYYDDHYCLDYWGQGTPVTVSS
VL: DIQMTQSPSSLSASVGDRVTITCSASSSVSYMNWYQQTPGKAPKRWIYDTSKLASGVPSRFSGSGSGTDYTFTISSLQPEDIATYYCQQWSSNPFTFGQGTKLQITR

target: CD3 on T cells (Jurkat cells; purified human T cells) (human, UniProt P07766 23-207; P09693 23-182; P04234 22-171); test: cell-based or functional assay

Binder | IFN-γ release from human T cells (no tumor cells), ELISA [pg/mL] | IL-2 release from human T cells (no tumor cells), ELISA [pg/mL] | IL-10 release from human T cells (no tumor cells), ELISA [pg/mL] | TNF-α release from human T cells (no tumor cells), ELISA [pg/mL]
B1 | 1.7 | 2 | 3.6 | 7.9
B2 | 2.1 | 2.2 | 2.1 | 7.6
B3 | 228 | 36.5 | 29.8 | 86.7
